Test [1] concerns the target T1, PSMA Fab.
T1 construct: also called 006 PSMA Fab; anti-PSMA Fab
The experiment in a line: BLI (Octet); PSMA Fab on sensor-loaded biotinylated peptide, 1:1 model.

The target of test [2] is T1, PSMA Fab. The test can be described thus: binding ELISA; PSMA Fab titrated on plate-captured biotinylated peptide. (An ELISA detects its analyte on a solid surface through an enzyme-linked reagent.)
Test [3] has as its target T1, PSMA Fab. The experiment in a line: competition ELISA; peptide 0-100 µM with 0.3 nM PSMA Fab on plate-captured biotinylated PSMA.
Test [4] concerns the target T1, PSMA Fab. The experiment in a line: BLI (Octet); PSMA Fab on sensor-loaded biotinylated peptide, 1:1 model. This is another data set of the same source. A general note: BLI is a label-free optical method that tracks binding on a fibre tip over time.
The target in test [5] is T1, PSMA Fab. The experiment in a line: binding ELISA; PSMA Fab titrated on plate-captured biotinylated peptide. This is another data set of the same source.
The target of test [6] is T1, PSMA Fab. The test can be described thus: competition ELISA; peptide 0-100 µM with 0.3 nM PSMA Fab on plate-captured biotinylated PSMA. This is another data set of the same source.
Test [7] addresses T1, PSMA Fab. Described as above. The source holds these as a separate data set.
The target of test [8] is T2, Anti-CD28 Fab (SEQ ID NOs: 696, 697).
T2 construct: Biotinylated and captured on neutravidin coated plates in the phage ELISA
The experiment in a line: phage binding ELISA on captured Fab; competitor: CD28 antigen pre-incubated in the wells.
Protocol: (§1) After panning, phage infected bacteria were plated out and colonies picked into 96 well blocks. Clonal phage was then amplified and separated from bacterial cells via centrifugation.
(§2) Clonal phage were harvested as crude supematants and screened via standard ELISAs. […] Prior to the addition of clonal phage, wells were incubated with blocking buffer and CD28 antigen or blocking buffer alone. Without washing or aspirating, clonal phage supematants were then added to the wells and incubated for a short time. Wells were then washed followed by detection of bound phage using a horse radish conjugated anti-M13 antibody. Clonal phage of interest were then sent for sequence analysis.

Test [9] has the same target. The experiment in a line: phage binding ELISA; biotinylated Fab on neutravidin plate, clonal phage supernatant, anti-M13 HRP; background signal 0.06.
Protocol: as §1, §2
Test [10] addresses anti-CD28 Fab. The experiment in a line: BLI (Octet): biotinylated peptide on streptavidin sensor, anti-CD28 Fab titrated in solution, 1:1 model.
Target sequence in this assay (VH, as listed by the source, chain 1 of 2): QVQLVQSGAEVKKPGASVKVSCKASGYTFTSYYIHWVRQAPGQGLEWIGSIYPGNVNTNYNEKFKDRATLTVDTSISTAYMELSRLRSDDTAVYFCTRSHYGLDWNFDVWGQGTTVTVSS
Target sequence in this assay (VL, as listed by the source, chain 2 of 2): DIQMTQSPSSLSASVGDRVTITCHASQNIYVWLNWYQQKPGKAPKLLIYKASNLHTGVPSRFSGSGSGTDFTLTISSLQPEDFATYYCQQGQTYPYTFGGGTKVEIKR
The target of test [11] is T3, anti-CD28 scFv (disulfide).
T3 construct: also called Anti-CD28 scFv (VH - linker 1 - VL) Disulfide mutation: G44C, G235C
The experiment in a line: competition ELISA: peptide titrated (0-100 µM) with 0.3 nM anti-CD28 scFv (disulfide), binding to plate-bound CD28.

The target in test [12] is anti-CD28 Fab. The test can be described thus: competition ELISA, peptide titrated 0-100 uM against 1 nM anti-CD28 Fab, plate-bound CD28 as competitor.
Target sequence in this assay (VH, as listed by the source, chain 1 of 2): as the sequence (VH, as listed by the source, chain 1 of 2) above
Target sequence in this assay (VL, as listed by the source, chain 2 of 2): as the sequence (VL, as listed by the source, chain 2 of 2) above
For test [13], the target named is anti-CD28 Fab. Described as above. This is another data set of the same source.
Target sequence in this assay (VH, as listed by the source, chain 1 of 2): as the sequence (VH, as listed by the source, chain 1 of 2) above
Target sequence in this assay (VL, as listed by the source, chain 2 of 2): as the sequence (VL, as listed by the source, chain 2 of 2) above
The target in test [14] is anti-CD28 Fab. Described as above. The source holds these as a separate data set.
Target sequence in this assay (VH, as listed by the source, chain 1 of 2): as the sequence (VH, as listed by the source, chain 1 of 2) above
Target sequence in this assay (VL, as listed by the source, chain 2 of 2): as the sequence (VL, as listed by the source, chain 2 of 2) above
The target of test [15] is T1, PSMA Fab. The test can be described thus: competition ELISA; peptide 0-100 µM with 0.3 nM PSMA Fab on plate-captured biotinylated PSMA. This is another data set of the same source.
Protocol: The concentration of peptide required to reduce the maximum signal by 50% (IC₅₀) was calculated in Graphpad Prism software.

The values that follow come from US20260242478A1 (published 2026).

Read-outs that look alike come from different tables or passages of the source. Where no end group is shown, it is not given here.

A word on the EC50: it is the concentration that produces a half-maximal response. Lower therefore signals an effect from little substance. Usually IC50 stands for the concentration needed to halve the response being measured. The low end stands for inhibition by little substance, the high end for a need for much substance. A word on the Kd: it is the equilibrium constant for the complex coming apart. Read a low Kd as tighter binding.

T2 sequence (VH, as listed by the source, chain 1 of 2): as the sequence (VH, as listed by the source, chain 1 of 2) above
T2 sequence (VL, as listed by the source, chain 2 of 2): as the sequence (VL, as listed by the source, chain 2 of 2) above
T3 sequence (scFv, as listed by the source): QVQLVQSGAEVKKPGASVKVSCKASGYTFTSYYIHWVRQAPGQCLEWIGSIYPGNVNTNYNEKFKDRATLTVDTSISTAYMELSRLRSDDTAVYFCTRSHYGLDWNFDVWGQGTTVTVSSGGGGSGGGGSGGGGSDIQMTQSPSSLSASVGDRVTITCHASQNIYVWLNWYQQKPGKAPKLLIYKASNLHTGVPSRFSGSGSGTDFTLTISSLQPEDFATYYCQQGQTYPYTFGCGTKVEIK

B1: Peptide-239 (peptide)
peptide: IDIRCTPIWMCVGF
On to B1, for which, in test [1], the “Off rate t1/2” value was 2 min. Further, the EC50 in test [2] is 9.4 nM. The IC50 in test [3] worked out at 620 nM.

B2: Peptide-230 (peptide)
peptide: VTKWCIPPWMCEVT
For the molecule B2, the “Off rate t1/2” value in [1] is 6.4 min.

B3: Peptide-180 (peptide)
peptide: IAVLCQPNWMCAGF
modifications: cysteine pairing not given here; also: biotinylated, site not given here
notes: PSMA mask peptide
As to B3, in test [4], the “Off rate t1/2” value stood at 0.6 min. For the same molecule, in test [5], the EC50 was 102 nM. Further, the IC50 in test [6] was found to be 5230 nM; in [7], 4140 nM.

B4: Peptide-256 (peptide)
peptide: IAVLCQPAWMCAGF
notes: Alanine-scan variant N8A of Peptide-180
Take B4: in [6], the IC50 was 2160 nM.

B5: Peptide-251 (peptide)
peptide: AAVLCQPNWMCAGF
notes: Alanine-scan variant I1A of Peptide-180
In test [6], B5 gave an IC50 of 8450 nM.

B6: Peptide-259 (peptide)
peptide: IAVLCQPNWMCAAF
notes: Alanine-scan variant G13A of Peptide-180
Molecule B6 gave a 50% inhibitory concentration (IC50) in test [6] of 67900 nM.

B7: Peptide-253 (peptide)
peptide: IAVACQPNWMCAGF
notes: Alanine-scan variant L4A of Peptide-180
B7: in test [6], the IC50 stood at 28200 nM.

B8: Peptide-260 (peptide)
peptide: IAVLCQPNWMCAGA
notes: Alanine-scan variant F14A of Peptide-180
Take B8: the IC50 in test [6] was determined as 60000 nM.

B9: Peptide-252 (peptide)
peptide: IAALCQPNWMCAGF
notes: Alanine-scan variant V3A of Peptide-180
The molecule B9 gave an IC50 in test [6] of 5700 nM.

B10: Peptide-254 (peptide)
peptide: IAVLCAPNWMCAGF
notes: Alanine-scan variant Q6A of Peptide-180
B10 displayed an IC50 in [6] of 15700 nM.

B11: Peptide-225 (peptide)
peptide: IPKSCIPSWMCTGF
As to B11, the “Off rate t1/2” value in test [1] worked out at 2.1 min. In test [2], a half-maximal response (EC50) required 9.7 nM. In test [3], this molecule gave a 50% inhibitory concentration (IC50) of 340 nM.

B12: Phage-1012 (Peptide-87 library peptide, SEQ ID NO: 1328) (peptide)
peptide: YCEGHMPQYMEKCL
notes: tested as crude clonal phage supernatant
Turning to B12, the “Anti-CD28 Fab signal in the presence of CD28 (phage binding ELISA)” value (“Anti-CD28 Fab signal in the presence” below) in test [8] turned out to be 0.06. For the same molecule, the “Anti-CD28 Fab signal (phage binding ELISA)” value in [9] is 1.51.

B13: Phage-1022 (Peptide-87 library peptide, SEQ ID NO: 1338) (peptide)
peptide: YCDGHSEQYIAKCL
notes: as for B12
Take B13: the “Anti-CD28 Fab signal in the presence” value in test [8] stood at 0.08. Further, in [9], the “Anti-CD28 Fab signal (phage binding ELISA)” value is 1.49.

B14: Peptide-232 (peptide)
peptide: LDKWCVPKWMCSGL
Take B14: the “Off rate t1/2” value in [1] came out at 2.1 min. In [2], this molecule came in with an EC50 of 7.2 nM. In [3], this molecule displayed an IC50 of 960 nM.

B15: Peptide-132 (peptide)
peptide: YCEGHLPEYRNKCL
modifications: cysteine pairing not given here; also: biotinylated, site not given here
As for B15, in [10], binding was put at a Kd of 110 nM and the “t1/2” value came out at 0.8 min. In addition, the IC50 in test [11] is 780 nM.

B16: Peptide-134 (peptide)
peptide: YCEGHLPEYIQKCL
modifications: not fully specified; cysteine pairing not given here; also: biotinylated, site not given here
In the case of B16, the “t1/2” value in [10] is 1 min. The molecule further yielded an IC50 in test [11] of 480 nM.

B17: Peptide-92 (peptide)
peptide: SCAAGASYAWPYCL
Turning to B17, the IC50 in [12] worked out at 2390 nM; in test [13] it was 11800 nM; in test [14] it was 7890 nM.

B18: Phage-1020 (Peptide-87 library peptide, SEQ ID NO: 1336) (peptide)
peptide: YCEGHIMQYMAQCL
notes: as for B12
Regarding B18, in test [8], the “Anti-CD28 Fab signal in the presence” value is 0.06. Besides, the “Anti-CD28 Fab signal (phage binding ELISA)” value in test [9] amounted to 1.49.

B19: Phage-1014 (Peptide-87 library peptide, SEQ ID NO: 1330) (peptide)
peptide: YCDGHSQEYMEKCL
notes: as for B12
Regarding B19, the “Anti-CD28 Fab signal in the presence” value in test [8] was determined as 0.06. Moreover, in test [9], the “Anti-CD28 Fab signal (phage binding ELISA)” value is 1.5.

B20: Peptide-233 (peptide)
peptide: GEKWCIPDWMCSGF
As to B20, in test [1], the “Off rate t1/2” value amounted to 3.9 min. Also, in [2], a half-maximal response (EC50) required 6.9 nM. This molecule also showed an IC50 in test [3] of 360 nM.

B21: Peptide-235 (peptide)
peptide: VEKLCTPIWMCLGF
Consider B21, for which the “Off rate t1/2” value in [1] came to 2.3 min. In test [2], a half-maximal response (EC50) required 10.5 nM. The IC50 in test [3] was determined as 320 nM.

B22: Phage-1010 (Peptide-87 library peptide, SEQ ID NO: 1326) (peptide)
peptide: YCDGHSELYMAKCL
notes: as for B12
In the case of B22, in test [8], the “Anti-CD28 Fab signal in the presence” value was found to be 0.06. The “Anti-CD28 Fab signal (phage binding ELISA)” value in [9] came out at 1.51.

B23: Peptide-236 (peptide)
peptide: DVKLCKPEWMCYGL
With B23, the “Off rate t1/2” value in test [1] was 1.8 min. This molecule gave an EC50 in [2] of 19.8 nM. This molecule also had an IC50 in test [3] of 380 nM.

B24: Peptide-227 (peptide)
peptide: LDNWCKPSWMCTGF
In the case of B24, the “Off rate t1/2” value in test [1] worked out at 2.1 min. The EC50 in [2] turned out to be 7.7 nM. Moreover, the IC50 in [3] worked out at 760 nM.

B25: Peptide-219 (peptide)
peptide: HVKLCKPAWMCQGL
For B25, in test [1], the “Off rate t1/2” value is 2.9 min. This molecule displayed a 50% effective concentration (EC50) in test [2] of 6.1 nM.

B26: Phage-1021 (Peptide-87 library peptide, SEQ ID NO: 1337) (peptide)
peptide: YCDGHLPIYQAKCL
notes: as for B12
Take B26: the “Anti-CD28 Fab signal in the presence” value in [8] is 0.1. Moreover, the “Anti-CD28 Fab signal (phage binding ELISA)” value in test [9] came to 1.49.

B27: Peptide-179 (peptide)
peptide: LMKWCTPRWMCAAE
modifications: cysteine pairing not given here; also: biotinylated, site not given here
notes: PSMA mask peptide
Regarding B27, the “Off rate t1/2” value in test [1] worked out at 1.2 min. The molecule further gave an EC50 in test [2] of 110 nM. The results for the IC50 in test [15] and in test [3] were 6490 nM and 7710 nM, respectively.

B28: Peptide-244 (peptide)
peptide: LMKACTPRWMCAAE
Consider B28, for which, in [15], the IC50 was found to be 34500 nM.

B29: Peptide-250 (peptide)
peptide: LMKWCTPRWMCAAA
With B29, the IC50 in test [15] is 6640 nM.

B30: Peptide-243 (peptide)
peptide: LMAWCTPRWMCAAE
In [15], B30 registered an IC50 of 40800 nM.

B31: Peptide-241 (peptide)
peptide: AMKWCTPRWMCAAE
For the molecule B31, the IC50 in test [15] came to 9160 nM.

B32: Peptide-247 (peptide)
peptide: LMKWCTPAWMCAAE
Regarding B32, in [15], the IC50 was 19700 nM.

B33: Peptide-245 (peptide)
peptide: LMKWCAPRWMCAAE
For B33, in [15], the IC50 stood at 49700 nM.

B34: Peptide-242 (peptide)
peptide: LAKWCTPRWMCAAE
With B34, in [15], the IC50 stood at 13700 nM.

B35: Phage-1013 (Peptide-87 library peptide, SEQ ID NO: 1329) (peptide)
peptide: YCEGHSLMYMAKCL
notes: as for B12
Regarding B35, the “Anti-CD28 Fab signal in the presence” value in [8] was determined as 0.06. Also, in test [9], the “Anti-CD28 Fab signal (phage binding ELISA)” value is 1.5.
